Results taken from patent US20260125454A1 (SHANGHAI JUNSHI BIOSCIENCES, published 2026).
Values joined by “and” are separate entries in the source; they are usually repeats but may differ in a detail not shown here. Identical values can stand only once. Like-named read-outs stand apart in the source and are kept apart here. Bridges are numbered along the chain shown (N, C = ends). Where no end group is shown, it is not given here.

T1: Biotin-huCGRPaSA (human, not fully specified; biotin (position not given))
T1 construct: exact construct ('aSA') not explained; also called Biotin CGRPaSA; full-length (1-37) CGRP
T1 peptide: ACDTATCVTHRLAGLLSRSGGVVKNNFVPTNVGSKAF

T2: human β-CGRP (human, UniProt P10092 82-118, not fully specified)
T2 construct: mature; also called human full-length (1-37) β-CGRP polypeptide (Anaspec)
T2 peptide (looked up): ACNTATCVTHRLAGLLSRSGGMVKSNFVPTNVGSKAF

T3: Biotin-1-19 polypeptide (human, disulfide 2-7; not fully specified (N-terminus); printed as Biotin-Linker(G5)-ACDTATCVTHRLAGLLSRS; ends not checked; also: biotin, position not given here)
T3 construct: also called fragment CGRP (1-19); truncated (1-19) CGRP
T3 peptide: ACDTATCVTHRLAGLLSRS

B1: C117 (antibody, V domains shown)
VH: EVQLQQSGPELVKPGASVKISCKASGYTFTDYNMHWVKQSHGKSLEWIGNIYPYNGGTVYNQKFNNKATLTVHTSSSTAYMDLRSLTSDDSAVYYCAREGLGGYWGQGTTLTVSS
VL: DIVLTQSPASLAVSLGQRATISCKASQNIDYDGYAYLNWYQQKPGQPPKVLIYSVFNLESGIPARFSGSGSGTDFTLNIHPVEEEDAATYYCQQSNEFPYTFGGGTKLEVK
notes: 2B8-HC1 + 1A2-LC2; chimeric, human constant regions
B2: C269 (antibody, V domains shown)
VH: EVQLQQSGPELVKPGASVKISCKTSGYTFTDYNMHWVKQSHGKSLEWIGYISPYNGGTAYNQKFKFKSTLTVDTSSSTAYMELRSLTSEDSAVYYCAREGLGGYWGQGTTLTVSS
VL: DIVLTQSPASLAVSLGQRATISCKASQNIDYDGYTYLNWYQQKPGQPPKVLIYSIFNLESGIPARFSGSGSGTDFTLNIHPVEEEDAATYYCQQSNEVPYTFGGGTKLEIK
notes: 3E5-HC + 3E5-LC; chimeric, human constant regions
B3: 3E5 (antibody, V domains shown)
VH: EVQLQQSGPELVKPGASVKISCKTSGYTFTDYNMHWVKQSHGKSLEWIGYISPYNGGTAYNQKFKFKSTLTVDTSSSTAYMELRSLTSEDSAVYYCAREGLGGYWGQGTTLTVSS
VL: DIVLTQSPASLAVSLGQRATISCKASQNIDYDGYTYLNWYQQKPGQPPKVLIYSIFNLESGIPARFSGSGSGTDFTLNIHPVEEEDAATYYCQQSNEVPYTFGGGTKLEIK
notes: murine hybridoma supernatant; also called hybridoma antibody 3E5
B4: C245 (antibody, V domains shown)
VH: EVQLQQSGPELVKPGASMKISCKASGYSFTGYTMNWVKQSHGNNLEWIGLINPYIGNTHYNQKFKDKATFTVDRSSSTAYMALLSLTSEDSAVYYCARELDSGFDYWGQGTTLTVSS
VL: DVLMTQTPLSLPVSLGDQASLSCRSSQNIVHSNGDTYLEWYLQKPGQSPKLLIYKVSNRFSGVPDRFSGSGSGTDFTLKISRVEAEDLGVYYCYQGSHVPWTFGGGTKLEIK
notes: 3C1-HC + 3C1-LC; chimeric, human constant regions; also called chimeric antibody C245
B5: 3C1 (antibody, V domains shown)
VH: EVQLQQSGPELVKPGASMKISCKASGYSFTGYTMNWVKQSHGNNLEWIGLINPYIGNTHYNQKFKDKATFTVDRSSSTAYMALLSLTSEDSAVYYCARELDSGFDYWGQGTTLTVSS
VL: DVLMTQTPLSLPVSLGDQASLSCRSSQNIVHSNGDTYLEWYLQKPGQSPKLLIYKVSNRFSGVPDRFSGSGSGTDFTLKISRVEAEDLGVYYCYQGSHVPWTFGGGTKLEIK
notes: murine hybridoma supernatant; also called hybridoma antibody 3C1
B6: C79 (antibody, V domains shown)
VH: EVQLQQSGPELVKPGASVKISCKTSGYTFIDFNMHWVKQSHGKSLEWIGYIYPYNGDVVYNQNFTNKATLTVDSSSSTAYMELRRVTSEDSAIYYCAREGLGGYWGQGTTLTVSS
VL: DVVLTQSPTSLAVSLGQRATISCQASQNIDGNTYMNWYQQKPGQPPKVLIYSIFNLESGIPARFSGSGSGTHFTLTIHPVEEEDAATYYCQQSNDYPYTFGGGTKLEIK
notes: 1F5-HC + 2B8-LC2; chimeric, human constant regions
B7: C71 (antibody, V domains shown)
VH: EVQLQQSGPELVKPGASVKISCKTSGYTFIDFNMHWVKQSHGKSLEWIGYIYPYNGDVVYNQNFTNKATLTVDSSSSTAYMELRRVTSEDSAIYYCAREGLGGYWGQGTTLTVSS
VL: DIVLTQSPASLAVSLGQRATISCKASQNIDYDGYAYLNWYQQKPGQPPKVLIYSVFNLESGIPARFSGSGSGTDFTLNIHPVEEEDAATYYCQQSNEFPYTFGGGTKLEVK
notes: 1F5-HC + 1A2-LC2; chimeric, human constant regions
B8: C74 (antibody, V domains shown)
VH: EVQLQQSGPELVKPGASVKISCKTSGYTFIDFNMHWVKQSHGKSLEWIGYIYPYNGDVVYNQNFTNKATLTVDSSSSTAYMELRRVTSEDSAIYYCAREGLGGYWGQGTTLTVSS
VL: DIVLTQSPASLAVSLGQRATISCKASQNIDFDGYAYMNWYQHKPGQPPRVLIYSVFNLESGIPARFSGSGSGTDFTLNIHPVEEEDAATYYCQQSHEVPYTFGGGTNLEIK
notes: 1F5-HC + 1F5-LC1; chimeric, human constant regions

Key:
[1] = target: T1, Biotin-huCGRPaSA; test: ELISA, purified antibody; relative to reference 47-RM-20190815
Method: Streptavidin was diluted to […] by using PBS (Hyclone) and added into a plate at 100 μL/well. The plate was incubated in a thermostat incubator at 37° C. for 90 min and then washed. 2% BSA was added to the plate at 200 μL/well, and the plate was incubated in the thermostat incubator at 37° C. for 90 min and washed. Biotin-huCGRPaSA was diluted to 2.0 μg/mL with 2% BSA and added into the plate at 100 μL/well, and the plate was incubated in the thermostat incubator at 37° C. for 60 min. The chimeric antibodies in Table 3 and reference antibody (47-RM-20190815) were diluted to 1000 ng/ml with a diluent (2% BSA) and serially 10-fold diluted to 1 ng/mL. All the chimeric antibody solutions and the reference antibody solution were added into plates at 100 μL/well, and the plates were incubated in a thermostat incubator at 37° C. for 60 min and washed. An HRP-conjugated mouse anti-human antibody IgG4 (manufacturer: Southern Biotech, Cat. No. 9200-05; Fc specificity) was diluted 5000-fold with 2% BSA and added into the plates at 100 μL/well, and the plates were incubated in the thermostat incubator at 37° C. for 60 min and washed. 0.1 mg/mL chromogenic reagent TMB was carefully added at 100 μL/well to avoid bubbles, and the system was incubated at 37° C. for 5 min away from light for chromogenic reaction. Finally, a 2 M hydrochloric acid solution was added at 100 μL/well to stop the reaction while avoiding bubbles, and the plates were read on a microplate reader within 10 min (the detection wavelength was 450 nm; the reference wavelength was 620 nm). EC₅₀ was fit by using a four-parameter logistic regression (4PL) model.

[2] = target: T1, Biotin-huCGRPaSA; test: ELISA, transfection supernatant, biotin-CGRP on streptavidin
Method: Streptavidin was diluted to 0.5 μg/mL by using PBS (Hyclone) and added into a plate at 100 μL/well. The plate was incubated in a thermostat incubator at 37° C. for 90 min and then washed. 2% BSA was added to the plate at 200 μL/well, and the plate was incubated in the thermostat incubator at 37° C. for 90 min and washed. Biotin-huCGRPaSA was diluted to 2.0 μg/mL with 2% BSA and added into the plate at 100 μL/well, and the plate was incubated in the thermostat incubator at 37° C. for 60 min. The reference antibody (47-RM) was diluted to 2500 ng/ml with a diluent (2% BSA) and serially 4-fold diluted to 0.15 ng/mL, and the chimeric antibodies were diluted with a cell supernatant stock solution. All the chimeric antibody solutions and the reference antibody solution were added into plates at 80 μL/well, and the plates were incubated in a thermostat incubator at 37° C. for 60 min and washed. An HRP-conjugated mouse anti-human antibody IgG4 (manufacturer: Southern Biotech, Cat. No. 9200-05; Fc specificity) was diluted 5000-fold with 2% BSA and added into the plates at 100 μL/well, and the plates were incubated in the thermostat incubator at 37° C. for 60 min and washed. 0.1 mg/mL chromogenic reagent TMB was carefully added at 100 μL/well to avoid bubbles, and the system was incubated at 37° C. for 10 min away from light for chromogenic reaction. Finally, a 2 M hydrochloric acid solution was added at 100 μL/well to stop the reaction while avoiding bubbles, and the plates were read on a microplate reader within 10 min (the detection wavelength was 450 nm; the reference wavelength was 620 nm).

[3] = target: CGRP antigen; test: cell-based or functional assay
[4] = target: CGRP antigen; test: cell-based or functional assay; remark: listed apart in the source
[5] = target: T2, human β-CGRP; test: ELISA, hybridoma supernatant
[6] = target: T3, Biotin-1-19 polypeptide; test: ELISA, transfection supernatant, biotin-CGRP(1-19) on streptavidin
Method: Streptavidin was diluted to 0.5 μg/mL by using PBS (Hyclone) and added into a plate at 100 μL/well. The plate was incubated in a thermostat incubator at 37° C. for 90 min and then washed. 2% BSA was added to the plate at 200 μL/well, and the plate was incubated in the thermostat incubator at 37° C. for 90 min and washed. Biotin-1-19 polypeptide was diluted to 2.0 μg/mL with 2% BSA and added into the plate at 100 μL/well, and the plate was incubated in the thermostat incubator at 37° C. for 60 min. The reference antibody (Lily) was diluted to 2500 ng/ml with a diluent (2% BSA) and then serially 4-fold diluted to 0.15 ng/ml. For chimeric antibodies, the stock solution was diluted. All the chimeric antibody solutions and the reference antibody solution were added into plates at 80 μL/well, and the plates were incubated in a thermostat incubator at 37° C. for 60 min and washed. An HRP-conjugated mouse anti-human antibody IgG4 (manufacturer: Southern Biotech, Cat. No. 9200-05; Fc specificity) was diluted 5000-fold with 2% BSA and added into the plates at 100 µL/well, and the plates were incubated in the thermostat incubator at 37° C. for 60 min and washed. 0.1 mg/mL chromogenic reagent TMB was carefully added at 100 μL/well to avoid bubbles, and the system was incubated at 37° C. for 10 min away from light for chromogenic reaction. Finally, a 2 M hydrochloric acid solution was added at 100 μL/well to stop the reaction while avoiding bubbles, and the plates were read on a microplate reader within 10 min (the detection wavelength was 450 nm; the reference wavelength was 620 nm).

[7] = target: CGRP antigen; test: cell-based or functional assay; remark: listed apart in the source
[8] = target: CGRP antigen; test: cell-based or functional assay; remark: listed apart in the source

| Binder | Relative activity (%) [1] | OD value [2] | Relative binding activity (%) vs Ref(Teva) [3] | EC50 (so labelled in the table under the curves; half-maximal inhibition of the CGRP-induced luciferase signal in SK-N-MC CRE 2E9 reporter cells, CGRP antigen at 4 ng/mL) [4] | binding result [5] | OD value [6] | IC50 of reference C245 [7] | Relative binding activity (%) vs Ref(Teva) [8] |
| --- | --- | --- | --- | --- | --- | --- | --- | --- |
| B1 | 31.7% | 3.06 OD | 74.1% | – | – | – | – | – |
| B2 | 101% | 2.91 OD | – | 0.143 µg/mL | – | – | – | – |
| B3 | – | – | – | – | binds | – | – | – |
| B4 | 240% | 3.31 OD | – | – | – | 2.51 OD | 0.018 µg/mL and 0.0236 µg/mL and 0.0259 µg/mL and 0.0281 µg/mL | 116% |
| B5 | – | – | – | – | binds | – | – | – |
| B6 | 59.8% | 3.03 OD | 71.1% | – | – | – | – | 71.1% |
| B7 | 47.3% | 3.06 OD | 106% | – | – | – | – | – |
| B8 | 39.5% | 3.06 OD | 76% | – | – | – | – | – |
